From the DeepSol protein solubility set

Test: soluble on expression in E. coli; label from the status in PepcDB or PDB records

Sequence	soluble on expression in E. coli
MSSMTTTDNKAFLNELARLVGSSHLLTDPAKTARYRKGFRSGQGDALAVVFPGSLLELWRVLKACVTADKIILMQAANTGLTEGSTPNGNDYDRDVVIISTLRLDKLHVLGKGEQVLAYPGTTLYSLEKALKPLGREPHSVIGSSCIGASVIGGICNNSGGSLVQRGPAYTEMSLFARINEDGKLTLVNHLGIDLGETPEQILSKLDDDRIKDDDVRHDGRHAHDYDYVHRVRDIEADTPARYNADPDRLFESSGCAGKLAVFAVRLDTFEAEKNQQVFYIGTNQPEVLTEIRRHILANFENLPVAGEYMHRDIYDIAEKYGKDTFLMIDKLGTDKMPFFFNLKGRTDAMLEKVKFFRPHFTDRAMQKFGHLFPSHLPPRMKNWRDKYEHHLLLKMAGDGVGEAKSWLVDYFKQAEGDFFVCTPEEGSKAFLHRFAAAGAAIRYQAVHSDEVEDILALDIALRRNDTEWYEHLPPEIDSQLVHKLYYGHFMCYVFHQDYIVKKGVDVHALKEQMLELLQQRGAQYPAEHNVGHLYKAPETLQKFYRENDPTNSMNPGIGKTSKRKNWQEVE	soluble
TEKKYIVALDQGTTSSRAVVMDHDANIISVSQREFEQIYPKPGWVEHDPMEIWATQSSTLVEVLAKADISSDQIAAIGITNQRETTIVWEKETGKPIYNAIVWQCRRTAEICEHLKRDGLEDYIRSNTGLVIDPYFSGTKVKWILDHVEGSRERARRGELLFGTVDTWLIWKMTQGRVHVTDYTNASRTMLFNIHTLDWDDKMLEVLDIPREMLPEVRRSSEVYGQTNIDGKGGTRIPISGIAGDQQAALFGQLCVKEGMAKNTYGTGCFMLMNTGEKAVKSENGLLTTIACGPTGEVNYALEGAVFMAGASIQWLRDEMKLINDAYDSEYFATKVQNTNGVYVVPAFTGLGAPYWDPYARGAIFGLTRGVNANHIIRATLESIAYQTRDVLEAMQADSGIRLHALRVDGGAVANNFLMQFQSDILGTRVERPEVREVTALGAAYLAGLAVGFWQNLDELQEKAVIEREFRPGIETTERNYRYAGWKKAVKRAMAWEEHDQLYTRASQPELAPEDPEDLEHHHHHH	soluble
MGSDKIHHHHHHMKKLICISLYEDLSMTTYDLSKVDNAELIGIVENASEGTLFVFTCDRPNGSSVIMCPGGGFLKTNLENEGIDFAEWFTKLGITYIVFKYRMPHGNPDVPEQDTRLALKVVREKFPEFCDKLGVMGASIGGYLATFSATLLPDDEKPDFQILMYPVVSVDDRLTHFPCRERMFGHSYSPDKMEQYSPIEHITSGTPAAFIVAAADDAVVSPLNGIMYAARLQKADIPISLHIYPAGGHGFGYNDSFVYKQEWLQELGEWLAKL	not soluble
MNSDPTRERILHGLITLYILKELVKRPMHGYELQKSMFETTGQALPQGSIYILLKTMKERGFVISESSVNEKGQQLTVYHITDAGKKFLCDHSQALQLARKIIDDLLSTVDIIENRN	soluble
MSLNNIQIRNYQPGDFQQLCAIFIRAVTMTASQHYSPQQISAWAQIDESRWKEKLAKSQVWVAIINAQPVGFISRIEHYIDMLFVDPEYTRRGVASALLKPLIKSESELTVDASITAKPFFERYGFQTVKQQRVECRGAWFTNFYMRYKPQHEGGSHHHHHH	soluble
MNPFHELEPGPEVPEVVYALIEIPKGSRNKYELDKKTGLLKLDRVLYSPFFYPVDYGIIPQTWYDDGDPFDIMVIMREPVYPLTIIEARPIGIMKMEDSGDKDWKVLAVPVEDPYFNDWKDISDVPKAFLDEIAHFFQRYKELQGKTTKIEGWGNAEEAKREILRAIEMYKEKFGKEE	soluble
MGSDKIHHHHHHMDTLIRRYKRLLTATSTTYIRSLMDTINWDNRLIAIRGARGVGKTTLMLQYLKLHYANDSQSALYTSLDSLYFTQHTLSELAEQFYLKGGKCLFLDEVHKYPSWSKEIKNIYDEFPELKIVFTGSSLLQLLNAEADLSRRCISYNMQGLSYREYLKLFHQIHIRPYTLEEILESSDGICNEVNSQCRPLAHFEDYLKHGYYPFYLEGNAEYYTRIENITNLILEIELPQQCGVDISNVRKLKSLLGILSSEVPFMVDITKLSALAELSRTTILAYLQYLDRAKLIHLLYSDNDSIKKLQKPDKIYMENTNLLYALTFKDVNKGTLREVFMVNQLSYLHRVEYCTRSADYTIDSKYTIEVGGKSKDGKQIAGSKKAFIAADDIEYSAGNKIPLWAFGFLY	not soluble
FCNAFTPVKAKEVKALILDFLHTNKITLQREIESSFITSAIIAHTGIDAFSISLLLDKNK	not soluble
MEGPLTIPVLDKGFVRLVDQMGDDRAIVQAARVSYGEGTKTVREDAALIDYLMRHRHTSPFEMVVFKFHVKAPIFVARQWFRHRTASVNEISGRYSILKEEFYEPEAFRKQAKRNKQASEGALLDEEALALLRKVQQEAYGAYRALLEKGVAREMARMVLPLNLYTEFYWKQDLHNLFHFLKLRLAPEAQWEIRQYARAIAEIVKERVPLAWAAFEEHLLEGAFLSRTELRALRGLLTPEVYEKALSSLGLGGSRLKEALEKVFGPGEAL	soluble
MRGLKTFSILGLIVALLLVAACGNTDNSSKKESSTKDTISVKDENGTVKVPKDAKRIVVLEYSFADALAALDVKPVGIADDGKKKRIIKPVREKIGDYTSVGTRKQPNLEEISKLKPDLIIADSSRHKGINKELNKIAPTLSLKSFDGDYKQNINSFKTIAKALNKEKEGEKRLAEHDKLINKYKDEIKFDRNQKVLPAVVAKAGLLAHPNYSYVGQFLNELGFKNALSDDVTKGLSKYLKGPYLQLDTEHLADLNPERMIIMTDHAKKDSAEFKKLQEDATWKKLNAVKNNRVDIVDRDVWARSRGLISSEEMAKELVELSKKEQK	not soluble
MSLNAEEKKGLQRAIEEITEIAKGFGLDFYPMRYEICPAEIIYTFGAYGMPTRFSHWSFGKQFHKMKLHYDLGLSKIYELVINSDPCYAFLLDSNSLIQNKLIVAHVLAHCDFFKNNCRFQNTKRDMVESMAATAERIKHYEQVHGIKEVESFLDAILSIQEHIDPSLVRPKLQWSVDDEEEEIEEAATPYDDLWSLDEKKPKKQVKKSKKPFPPRPEKDILLFIEEHSRELEPWQRDILTMMREEMLYFWPQLETKIMNEGWASYWHQRIIRELDLTSDEAIEFAKLNAGVVQPSKTGINPYYLGLKIFEDIEKRYNNPTEEMKKMGVQPDSGREKMFEVREIESDISFIRNYLTKELVMREDLYLFQKQGRDYKIIDKQWKSVRDQLVSMRVNGGFPYLTVNDGDYMKNNELYIKHWYEGIELDLKYLEKVLPYLFQLWGRSVHIESVLEDKEVMFSYDGKGVHRRYLEGHHHHHH	not soluble
MSEHETAGEGRFNSIEIRVLGSLIEKQATSPESYPLTLNALVLACNQKTSREPVMNLTQGQVGQALRALEGQGMTRLQMGSRADRWEHRVDKALELVPAQLVLMGLMFLRGPQTLNELLTRSNRLHDFDDTEQIQHQLERLISRDLALHLPRQAGQREDRYTHALGDPAEIEAILAARQQEGGARTSGGSVSEDRIEALEARIAALEARLAELEG	not soluble
MVKIIENKLIDAEPLKDAVLIEGLPGIGHVGRVAAEHIVEEFNGEKVLELYCDDFPPQIVVKNDGTIEYMKNEFYLVKEPVPMVIVLGNTQALSPKGQYVLSEKIVDIAMKYGATKTYTLGGFGIGKISDELKVYVASTSKELSEQHKELGAEFRTDGGSIIGAAGLMLKFSKLKGIEGICLMGETPGYLVDPKSAGNVLEMLSKAIGFEIDMKKLDERAKEMEKFIEKVQMQEQGMQAPQHQDDLSYIG	not soluble
MGSSHHHHHHSSGLVPRGSHMAEFRFIKTSLDGAIIIEPEVYTDERGYFMETFNEAIFQENGLEVRFVQDNESMSVRGVLRGLHFQREKPQGKLVRVIRGEIFDVAVDLRKNSDTYGEWTGVRLSDENRREFFIPEGFAHGFLALSDECIVNYKCTELYHPEYDSGIPWDDPDIGIDWPLEMVDDLIISEKDRNWKPLRENPVYL	soluble
MGSDKIHHHHHHMRYAFWNNKGGTGKTSLAFQSICRFAELNPHARILAIDVCPQANLSELMLGGLTNQGSARLMQRQGQVPRCSIGGYFQLRLPAPYTRPAFTASDFITTPNQYNPLIPGNIDLVCGDPLLELQANAVNTLANAQIPGTNTWIAVIDWISDFLESAEGYDYVFFDANPSFSIYTQIALSATNRVILPVMADDSSRRAIQNAFSLIYGLRLPSPIYATYNFATKLREAERPLPQVHLIPKNRLTQYMGPASAFYAVLAAIDQDVAGLLVQRPDLFTFADVADGVVDVRDFQTTGVVSYAKGAPFSQLRTGRLDIGGHRVRVDADMRQNCIDAIDGLVDRIE	not soluble
MAHHHHHHMKTCKTGIQKVRDVSEATVLVLDWFERRNKPATPQSLADALGSRVAKSLLQKILEQLHAEEKLHVKDMKKIRFYYRRVLPLSDADGATTTKQHSEPEDDPAATTGERGNAVNVPEVCGGAETCAESPADAHAALLHAVAISAVQLSERSLRLTRWRGWPSSTERADKYADLAREVCELRNSLERLQSRHAGESAEAHGGGSWTSRVRRAVCRYRRARRHWVQRKDWAMCLLEATAGDAHTPLQAAALLGCTTDAEAGVSFEDTAVALPAPLMRELNLSQR	not soluble
MVLQIMLLTKPVPLYPPYIDLCDFDFDDYPQLDKIFSSNEPWWLEQFNWGKIFLTYIGRNKSAHTYERFRNDVERFLLWSFIVKKKPIDQLRKSDLLEYADFCWQPPVDWIGTSNQERFKITNGYSAANELWFPYKIQAPKSLKSQFVIDKKKYRPSQQTLSSMFTAIIVFYNYLMAEDFCIGNPAQIAKKDCRHFIIDSQVKEIKRLTGSQWQFVLDTAVEMADENAMFERNLFVIASLKTLFLRISELSERPNWSPTMGHFWQDDDENWWLKIFGKSRKLRDITVPIDFLPFLERYRASRGLLGLPSSNENSILVEKVRGQGGMTSRHLRRLVQSVFDQAHENMRRSEGENKALKLKEASAHWLRHTGASMEIERGRPLKDISEDLGHASMATTDTVYVQSENKKRAESGKRRKVD	not soluble
GMATNSSTEQSLTKKVWNLATTLAGQGIGFTDYITQLTYLLFLKMDAENVEMFGEESAIPTGYQWADLIAFDGLDLVKQYEETLKLLSELDNLIGTIYTKAQNKIDKPVYLKKVITMIDEEQWLIMDGDVKGAIYESILEKNGQDKKSGAGQYFTPRPLIQAMVDCINPQMGETVCDPACGTGGFLLTAYDYMKGQSASKEKRDFLRDKALHGVDNTPLVVTLASMNLYLHGIGTDRSPIVCEDSLEKEPSTLVDVILANPPFGTRPAGSVDINRPDFYVETKNNQLNFLQHMMLMLKTGGRAAVVLPDNVLFEAGAGETIRKRLLQDFNLHTILRLPTGIFYAQGVKANVLFFSKGQPTKEIWFYDYRTDIKHTLATNKLERHHLDDFVSCYNNRVEIYDAENNPQGRWRKYPVDEIIARDKTSLDITWIKPGGEVDDRSLAEL	soluble
MGSDKIHHHHHHMVGIILASHGEFAEGILQSGAMIFGEQENVKAVTLMPSEGPDDVKAKMQEAIASFDNQDEVLFLVDLWGGTPFNQANSLLEDHKDKWAIVAGMNLPMVIEAYASRFSMESAQEIATHILETAKDGVKVKPEELQPAEAPKAAATEDAQPKGSLPPGTVVGDGKIKFVLARIDSRLLHGQVATAWTKATQPNRIIVVSDAVAKDDLRKKLIEQAAPPGVKANVIPISKMIEVAKDPRFGNTKALLLFENPEDVLKVVEGGVEIPEVNVGSMAHSVGKVVVSKVLSMGQEDVDTFDELKAKGIKFDVRKVPNDSKANMDEILKKAKNELANA	not soluble
MKTIWTGAIGFGLVNIPVKLFSATHESRLDLDMLDKKDHSNIKFQRVNAKTGKEVAWDNIVKGYKIEDDYVILDEKDFEKANAKKTKTIEILQFVQEDEIDSVYFETPYYIQPDKSGTRAYALLREALIKSKKVAVANYVLRNKEALAILKPVGNVIVLNKIRFQEEILDADALDLPAKSAIKEGEMKMALSLIDQLTETFDISKYKDTYTSELLKLIKAKAKGTVVKTKSAASKPTATKDLMAQLKASLQPTKRAAAR	not soluble
